Results as given in article PMC8623809.

Legend:
[1] = biological target: porcine gastric mucin (PGM), Sigma Type III; experiment: Intrinsic tryptophan fluorescence quenching (excitation 280 nm, emission maximum 326 nm), Stern-Volmer analysis; details: 100 mM PBS (composition not further stated), 100 mM PBS adjusted with HCl to pH 7, 5 and 3 (same buffer at all pH values)
[2] = biological target: bovine submaxillary mucin (BSM), Sigma Type I-S; experiment: as above; details: 100 mM PBS (composition not further stated), 100 mM PBS adjusted with HCl to pH 7, 5 and 3 (same buffer at all pH values)

beta-lactoglobulin (BLG) showed a Ksv (Stern-Volmer constant, static quenching) (not printed (uM^-1 inferred)) ([1]; pH 3) of 1.25, a Ksv (Stern-Volmer constant, static quenching) (not printed (uM^-1 inferred)) ([1]; pH 5) of 0.92 and a Ksv (Stern-Volmer constant, static quenching) (not printed (uM^-1 inferred)) ([1]; pH 7) of 1.08. For the same substance, the Ksv (Stern-Volmer constant, static quenching) (not printed (uM^-1 inferred)) ([2]; pH 3) was 0.19, the Ksv (Stern-Volmer constant, static quenching) (not printed (uM^-1 inferred)) ([2]; pH 5) was 0.15 and the Ksv (Stern-Volmer constant, static quenching) (not printed (uM^-1 inferred)) ([2]; pH 7) was 0.23.
